Laboratory results taken from patent US20220265770A1, “TREATING NEURODEGENERATIVE DISEASES WITH PROGRANULIN” (NEURODYN, INC., priority 2008, published 2022).

What was measured:
NSC-34 cells [1] = experiment: NSC-34 serum deprivation with hPGRN protein (Alamar Blue); assay type: cell-based; settings: hPGRN 100 ng/ml, Day 4, Alamar Blue
Method: Normal NSC-34 cells were maintained in culture using DMEM supplemented with 5% (v/v) fetal calf serum (FCS). Cells were aliquoted in 96-well plates at a density of 6,000 cells/well in 200 uL of DMEM 5% FCS. After 2 hours of culture (to ensure cell adhesion) media was removed, cells washed 1× with PBS and DMEM serum free medium with or without hPGRN (100 ng/ml) added to the cells. Following one and four days of culture remaining metabolically active cells were detected using the Alamar Blue® methodology (Molecular Probes/Invitrogen) following the manufacturer's instructions.

NSC-34 cells [2] = experiment: BSSG-induced toxicity in NSC-34 and NSC-34-hPGRN cells (MTT); assay type: cell-based
Method: Normal NSC-34 and a stable NSC-34 transfectant that over expressed human PGRN (NSC-34-hPGRN) NCS34 were maintained in culture using DMEM supplemented with 5% (v/v) fetal calf serum (FCS). Cells were aliquoted in 96-well plates at a density of 8,000 cells/well in 200 uL of DMEM 5% FCS.d After two hours the neurotoxin Beta-sitosteryl glucoside (BSSG) was added at concentrations of 0, 100, 250, 500, 1000 and 2500 ng/mL with a final culture volume of 250 uL along with 0.1% (v/v) DMSO throughout. As a negative control for cell proliferation/survival, a series of wells were washed and media replaced with DMEM containing no FCS. Following 72 hours cell viability was measured using the MTT assay (Vybrant MTT Cell proliferation Assay; Invitrogen) according to manufacturer's instructions.
To determine if PGRN was capable of protecting NSC-34 cells against BSSG neurotoxicity a stable transfectant was developed to over express human PGRN constitutively.

PC12 cells = experiment: Protection against MPTP toxicity in PC12 cells (MTT); assay type: cell-based; settings: 4 nM progranulin 24 h pretreatment; 0-1000 μM MPTP 24 h
Method: PC12 cells were grown on collagen-coated 96-well plates, in Dulbecco's minimal essential medium (DMEM) in the presence of 10% fetal calf serum (FCS) supplemented with glutamine, penicillin and streptomycin. One day after plating (at 60-70% confluence, 40,000 cells/well), the growth medium was replaced by low-serum (2% FCS) medium with 4 nM progranulin (PGRN+) or without progranulin (PGRN−) (FIG. 19). […] 43(5-6):155-158 (2007)]

rat motor neurons = settings: literature (Van Damme et al.); cited from earlier work

B1: Progranulin: growth factor-like protein; human progranulin SEQ ID NO: 2 (protein, listed as Homo sapiens)
chain: MWTLVSWVALTAGLVAGTRCPDGQFCPVACCLDPGGASYSCCRPLLDKWPTTLSRHLGGPCQVDAHCSAGHSCIFTVSGTSSCCPFPEAVACGDGHHCCPRGFHCSADGRSCFQRSGNNSVGAIQCPDSQFECPDFSTCCVMVDGSWGCCPMPQASCCEDRVHCCPHGAFCDLVHTRCITPTGTHPLAKKLPAQRTNRAVALSSSVMCPDARSRCPDGSTCCELPSGKYGCCPMPNATCCSDHLHCCPQDTVCDLIQSKCLSKENATTDLLTKLPAHTVGDVKCDMEVSCPDGYTCCRLQSGAWGCCPFTQAVCCEDHIHCCPAGFTCDTQKGTCEQGPHQVPWMEKAPAHLSLPDPQALKRDVPCDNVSSCPSSDTCCQLTSGEWGCCPIPEAVCCSDHQHCCPQGYTCVAEGQCQRGSEIVAGLEKMPARRASLSHPRDIGCDQHTSCPVGQTCCPSLGGSWACCQLPHAVCCEDRQHCCPAGYTCNVKARSCEKEVVSAQPATFLARSPHVGVKDVECGEGHFCHDNQTCCRDNRQGWACCPYRQGVCCADRRHCCPAGFRCAARGTKCLRREAPRWDAPLRDPALRQLL
increase in cell survival following serum starvation (NSC-34 cells [1]): 2.5 fold
cell survival in serum free cultures (MTT) (NSC-34 cells [2]; PGRN over expression, 72 hours, no FCS): increased cell survival
protection against BSSG neurotoxicity (MTT) (NSC-34 cells [2]; stable transfectant over expressing human PGRN, 72 hour, 1000 and 2500 ng/mL BSSG): protected NSC-34 cells
cell viability against MPTP (MTT) (PC12 cells): protective effect
survival of rat motor neurons under serum deprivation (rat motor neurons): increased survival of rat motor neurons
